Experimental data as given in the supplement of paper PMC9170038.

System: MS2 coat protein
Test: apparent KD of MS2 coat protein; designed switch direction (-1 OFF switch, 1 ON switch): 1; higher = weaker reporter binding
Method in brief: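 RNA switches sharing common flanks were transcribed by stalled E. coli RNA polymerase on Illumina chips. A doubling series of SNAP-549-labelled MS2 coat protein, from 0.7 or 1.5 nM to 3 µM, was applied in Tris-HCl pH 7.5 buffer with KCl, MgCl2, BSA, DTT, tRNA and Tween-20. Each step lasted 0.8–1.5 h at the bottom of the series and 10–20 min at the top. Normalised cluster fluorescence was curve-fitted, giving apparent KD as the per-design median over clusters.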

[1] = Eterna round: R95, input ligand: FMN 200 uM
[2] = Eterna round: R95, input ligand: microRNA oligo, concentration not stated
[3] = Eterna round: R95, input ligand: none
[4] = input ligand: microRNA oligo, concentration not stated

Sequence | apparent KD of MS2 coat protein [1] [nM] | apparent KD of MS2 coat protein [2] [nM] | apparent KD of MS2 coat protein [3] [nM] | apparent KD of MS2 coat protein (input ligand: FMN 200 uM) [nM] | apparent KD of MS2 coat protein [4] [nM] | apparent KD of MS2 coat protein (input ligand: none) [nM]
CGUAGGUAGCUGGAGGAUAUUCGAGUGGUAACAUGAGGAUCACCCAUGUGGAUAGAGGAACAUGAGGAGAAGGCUAGCUGCCUGC [JL-ss2-3.20 JL mod] (puzzle: Same State 2) | 11.3 | 26.6 | 30.6 | – | – | –
UAAAUACAUGAGGAUCACCCAUGUCAAAAGACAUGAGGAUAUGUACAGACUUCGGUCUGUACAGAAGGCAUGAAUA [salish99_ss1_r3_096] (puzzle: Same State 1) | 34.4 | 294 | 566 | – | – | –
AGAUCAUGACGAGGAUAUGCAACAUGAGGAUCACCCAUGUAUGUUGCAGGACGCGUACGUCCAAUGUAGAAGGCGUCGUGGUCA [JL SSNG2 1.06] (Eterna round: R96, puzzle: Same State NG 2) | – | – | – | 40.2 | 146 | 150
CCGCGCUGUCGAGAGGAUAUGCGGUGAUGGACAUGAGGAUCACCCAUGUUAGCGAUAGCAUUACUGUAGAAGGCUCUACGGCGGC [JL-ss2-3.09 ViennaUCT mod] (puzzle: Same State 2) | 12.2 | 10.4 | 11.9 | – | – | –
GCUCGUAUGAUGACCGACAUGAGGAUCACCCAUGUGUGUCGGUAGGAUAUCUAUAUUAAGGAUAUAGAGAAGGGCCCAACGAGC [SameState NG3 #18] (Eterna round: R96, puzzle: Same State NG 3) | – | – | – | 114 | 103 | 158
GCAUGAGAGAUAGGAUAUCGUGUACCUACAUGUGACAUGAGGAUCACCCAUGUGGUAAGUAUGAGCGAGAAGGAUCCGAUAUGU [salish99_SSNG2_r04_1002] (Eterna round: R96, puzzle: Same State NG 2) | – | – | – | 26.6 | 44.4 | 60.9
CCAUAGUACAAUUUAGAUCUACAUGAGGAUCACCCAUGUACUGAGGAUAUCAGCUCGUUUAGAGCUGAGAAGGCAGAAGUACUU [SSNG3/6-A3] (Eterna round: R96, puzzle: Same State NG 3) | – | – | – | 34.2 | 64.8 | 102
CUGAGCGAUUAAGGAUAUCACGUCGUUUAGACGUGAGAAGGUGAUCAUAACAUGAGGAUCACCCAUGUAUUACAUGAAGCUCAG [SSNG1/3-A3] (Eterna round: R96, puzzle: Same State NG 1) | – | – | – | 614 | 98.1 | 128
UGCCUGAGUCGAGGAUAUUAUGGAUCAAUUAAUACAUGAGGAUCACCCAUGUAAUUAAUUUAACAUGAGAAGGUGACUCAGGCA [SSNG2/10-B2] (Eterna round: R96, puzzle: Same State NG 2) | – | – | – | 14.9 | 12.2 | 9.99
GCUGGAAACCACAUGAGGAUCACCCAUGUUCCGGAAACGGCACAGGAUAUCUGUCCGAAAAGGUCAGAGAAGGGUGGAACCAGC [Fiskers NG3ss - 82] (Eterna round: R96, puzzle: Same State NG 3) | – | – | – | 221 | 350 | 393
GGUAUGGACACAGGAUAUGCUAUCCUUUGGGUAGCAGAAGGGUGAACAUGAGGAUCACCCAUGUACGUGCCAGGGCGUGAGCCC [JL SSNG1 1.78] (Eterna round: R96, puzzle: Same State NG 1) | – | – | – | 913 | 278 | 1620
AAUCGUUUGAUAGGAUAUCGCUAUACAUGAGGAUCACCCAUGUUUACCACGCUGGUUUUUCGUACCGAGAAGGAUUCUGAUGAU [JL JR sub007 mod 4] (Eterna round: R96, puzzle: Same State NG 2) | – | – | – | 36 | 25.4 | 36.1
GUUACAUGAGGAUCACCCAUGUAUGUGUGGGAGUAAGUGUCUUAGGAUAUCUAGUGUUUAAUUUAAGAGAAGGAAGAUUGUUGU [JMF's solution 53] (Eterna round: R96, puzzle: Same State NG 3) | – | – | – | 134 | 96.8 | 116
UAUCGUUUGAUAGGAUAUCGCUAUACAUGAGGAUCACCCAUGUUUACCACGCUGGUUUUUCAUACCGAGAAGGAUUCUGAUGAG [salish99_SSNG02_r04_005] (Eterna round: R96, puzzle: Same State NG 2) | – | – | – | 36.3 | 33.2 | 42.2
GUGUGUUGCGGGCAGGAUAUGUACUUGAGUACAUGAGGAUCACCCAUGUGCGGGUGUUUCACCCGACAGAAGGGCCUAUCGCGAC [JL-ss2-3.25 ViennaUCT mod] (Eterna round: R96, puzzle: Same State 2) | – | – | – | 252 | 457 | 1070
AGUGAACAUGAGGAUCACCCAUGUGAGAGGGAUGUAGGAUAUGUAAGGAAGUAAGAUGGAACAGAAGGACAAAGUG [JR_SS!_Sub067] (puzzle: Same State 1) | 38.6 | 46.1 | 50.4 | – | – | –
GGUAGGUUACUACCAGACAUGAGGAUCACCCAUGUAAGUGGGAAGGAUAUGGUACCGUUUCGGUACCAGAAGGUCCUAUGUAAG [JL SSNG3 1.45] (Eterna round: R96, puzzle: Same State NG 3) | – | – | – | 269 | 88.7 | 936
GGUCGGACUCACAUGAGGAUCACCCAUGUUGCGGAAACGCGGCAGGAUAUCUGUCCGAAAAGGUCAGAGAAGGGUCAACCGACC [Fiskers NG3ss - 62] (Eterna round: R96, puzzle: Same State NG 3) | – | – | – | 644 | 141 | 199
GUUACAUGAGGAUCACCCAUGUAUGUGUGGGAGUAAGUGUCUUAGGAUAUCUGAUAUUUAAUUUAAGAGAAGGAAGAUUGUUGU [JMF's solution 29] (Eterna round: R96, puzzle: Same State NG 3) | – | – | – | 119 | 69.6 | 85.5
AAAAUUUCUGCACAGGAUAUGUAGUGUUUCACAUGAGGAUCACCCAUGUCAAAACCAGAGACUGUACAGAAGGGUGCGGUCGGAC [Onedxequ] (puzzle: Same State 2) | 15.8 | 10.3 | 14.6 | – | – | –
UCAAGCGUUUGGCUCGUCUUAUGUUUGGUACAUGAGGAUCACCCAUGUUAGGGACGAUCCAGUUAGAUGGAAUUUUG [JR_SHM208A_Sub036] (puzzle: Sensor for hsa-mir-208a) | 36.5 | 637 | 45.6 | – | – | –
CGACGCACGGCAGGAUAUCGAUUCCAAAGGAAUCGAGAAGGGCCUCAUGUCGUGGAAACGUGACAUGAGGAUCACCCAUGUUGC [Omei SS(NG)1 Cv19] (Eterna round: R96, puzzle: Same State NG 1) | – | – | – | 115 | 9.29 | 27.9
UGGUACAUGGGAGGAUAUCUCAUGGAGACAUGAGGAUCACCCAUGUAGUAGGACCGGAAACGGUGAGAGAAGGCCCAUGUACCU [JL SSNG1 3.73] (Eterna round: R96, puzzle: Same State NG 2) | – | – | – | 26.6 | 40.5 | 51.5
UGUUGUAUUACAGGAUAUCUAUUGAUUUUAUUUAGAGAAGGGUAUUCACAUGAGGAUCACCCAUGUAUAUACGAGGAAGUUGUG [JMF's solution 71] (Eterna round: R96, puzzle: Same State NG 1) | – | – | – | – | 41.5 | –
CGUUCAUACUCAGGACGGAGAGUAGAGGAACAUGAGGAUCACCCAUGUAUGAGCUUUUUGCUCGUCAUGAACAGGAG [JR_SHM208a_Sub011] (puzzle: Sensor for hsa-mir-208a) | 103 | 72.2 | 117 | – | – | –
AGUCCAGCCUGAGCUGGACAAAGGCAUGUACAUGAGGAUCACCCAUGUCAUGUACAAGCUUUUUGCUCGUCUUAAAA [Zipper 46 - 1] (puzzle: Sensor for hsa-mir-208a) | 161 | 14.9 | 187 | – | – | –
GUUACAUGAGGAUCACCCAUGUAUGUGUGGGAGUAAGUGUCUUAGGAUAUCUAGUAUUUAAUUGAAGAGAAGGAAGAUUGUUGU [JMF's solution 67] (Eterna round: R96, puzzle: Same State NG 3) | – | – | – | 109 | 87.2 | 108
GUGGCCUAGGCACAGGAUAUGUUUCUCGUAACAUGAGGAUCACCCAUGUGCCUUUGAGAUUUUAUGCAGAAGGGUGCACGCCACG [JL Atiinbe mod 04] (Eterna round: R96, puzzle: Same State 2) | – | – | – | 21.1 | 214 | 425
AAUUAAGAUCGAGGAUAUCACGUCGAUUAGACGUGAGAAGGCGAUCAUAACAUGAGGAUCACCCAUGUAUUACAUGAAUUAAUU [SSNG1/4-B2] (Eterna round: R96, puzzle: Same State NG 1) | – | – | – | 33.4 | 26.7 | 36.6
CAUCGUUUGAUAGGAUAUCGCUAUACAUGAGGAUCACCCAUGUUUACCACGCUGGUUUUUCAUACCGAGAAGGAUUCUGAUGAG [salish99_SSNG02_r04_012] (Eterna round: R96, puzzle: Same State NG 2) | – | – | – | 55.3 | 38.3 | 47.6
